Data as given in paper PMC7644671 (Nature structural & molecular biology, 2020).

Target: the molecule itself
Test: cryo-EM structure

B1: mouse DUOX1 (enzyme, mouse (Mus musculus), UniProt A2AQ92 20-1551, looked up)
chain: GAQNSISWEVQRFDGWYNNLMEHRWGSKGSRLQRLVPASYADGVYQPLKEPYLPNPRHLSNRVMRGSAGQPSLRNRTVLGVFFGYHVLSDLVSVETPGCPAEFLNIYIPHGDPVFDPDKRGNVVLPFQRSRWDRNTGQSPSNPRDQSNQVTGWLDGSAIYGSSHSWSDTLRSFSGGQLASGPDPAFPSDSQSSLLMWMAPDPSTGQGGPRGVYAFGAQRGNREPFLQALGLLWFRYHNLCARKLAQEHPHWGDEELFQHARKRVIATYQNIAMYEWLPSFLKQTPPEYPGYRPFLDPSISPEFVVASEQFLSTMVPSGVYMRNASCHFQGIPSHNSSVSGALRVCNSYWSREHPKLQRAEDVDALLLGMASQIAEREDHVVVEDMQDFWPGPLKFSRTDYLASCLQRGRDLGLPSYTKAREALGLSPISHWQDINPALSRSNGTVLEATAALYNQDLSRLELLPGGLLESHGDPGPLFSTIVLDQFVRLRDGDRYWFENTRNGLFSKEEIAEIRNTSLRDILVAVTNVDPSALQPNVFFWLAGDPCPQPSQLSAKGLPACAPLFIRDYFEGSGFGFGLTIGTLCCFPLVSLLSAWIVARLRKRNFKRLQRQDRQSIMSEKLVGGVEALEWQGRNEPCRPVLVHLQPGQIRVVDGRLTVLRTIQLRPPQQVNLILSSNRGRRTLLLKIPKEYDLVLLFNMEEERQALVENVRGALKENGLSFQEWELREQELMRAAVTRQQRGHLLETFFRHLFSQVLDINQADAGTLPLDSSTKVREALTCELSRAEFADSLGLKPQDMFVESMFSLADKDGNGYLSFREFLDILVVFMKGSPEEKSRLMFRMYDFDGNGLISKDEFIRMLRSFIEISNNCLSKAQLAEVVESMFRESGFQDKEELTWEDFHFMLRDHDSDLRFTQLCVKGVEVPEVIKNLCRRASYISQEKICPSPRMSAHCARNNMKTASSPQRLQCPMDTDPPQEIRRRFGKKVTSFQPLLFTEAHREKFQRSRRHQTVQQFKRFIENYRRHIGCVAVFYTITGALFLERAYYYAFAAHHSGITDTTRVGIILSRGTAASISFMFSYILLTMCRNLITFLRETFLNRYIPFDAAVDFHRLIASTAIILTVLHSAGHVVNVYLFSISPLSVLSCLFPGLFHDDGSEFPQKYYWWFFQTVPGLTGVLLLLALAIMYVFASHHFRRRSFRGFWLTHHLYIFLYILLIIHGSFALIQMPRFHIFFLVPAIIYVGDKLVSLSRKKVEISVVKAELLPSGVTHLRFQRPQGFEYKSGQWVRIACLALGTTEYHPFTLTSAPHEDTLSLHIRAAGPWTTRLREIYSPPTGDTCARYPKLYLDGPFGEGHQEWHKFEVSVLVGGGIGVTPFASILKDLVFKSSVSCQVFCKKIYFIWVTRTQRQFEWLADIIREVEENDRQDLVSVHIYITQLAEKFDLRTTMLYICERHFQKVLNRSLFTGLRSITHFGRPPFEPFFNSLQEVHPQVRKIGVFSCGPPGMTKNVEKACQLINRQDRTHFSHHYENF
modifications: sugar densities at glycosylation sites N94, N324 and N534
B1 was tested, and the “stoichiometry N” value was 2.
